US20060121056A1

Biological target: SNAP-25 (rat) (UniProt P60881)

WGA-LHN/A conjugate (enzyme)
IC50, inhibition of glycine release from eSC neurons (3 days) (microgrammes/ml): 0.06 | IC50, inhibition of substance P release from eDRG neurons (3 days) (microgrammes/ml): 0.34
